Reference: publication PMC6733935, “A convenient and efficient total solid-phase synthesis of DOTA-functionalized tumor-targeting peptides for PET imaging of cancer” (EJNMMI Research, 2019)
Square brackets hold non-standard residues; d marks the D form. Peptide text beside a SMILES is read from it. * marks the point of attachment. DOTA = O=C(O)CN1CCN(CC(=O)O)CCN(CC(=O)*)CCN(CC(=O)O)CC1; Cha = N[C@@H](CC1CCCCC1)C(=O)O; 4Abz = Nc1ccc(C(=O)O)cc1; Nle = CCCC[C@H](N)C(=O)O

What was measured:
in vivo [1] = type: in vivo, nude mice; details: female, nude, mouse, in vivo, total radioactivity
Description: BN/GRP receptor-positive MDA-MB-231 and PC3 cell lines (American Type Culture Collection, Rockville, USA) were grown as monolayers at 37 °C in a humidified atmosphere containing RPMI-1640 culture media with 10% fetal bovine serum (FBS) in tissue culture flasks. Twenty-four hours prior to conducting the tumor implantation, the media was replaced with RPMI-1640/10% FBS. The cells were grown to 80-90% confluency and harvested by trypsinization. After centrifugation, about 50 million cells were suspended in 1 mL media for implantation into mice. To prepare cells for inoculation, MDA-MB-231 or PC3 cancer cells with media were centrifuged, the media decanted, and the cell pellet was mixed with phosphate-buffered saline (PBS) to reach a concentration of approximately 5 million cells per 100 μL PBS. Human MDA-MB-231 breast cancer xenografts female mouse models were used for in vivo tumor-targeting experiments. For the implantation of tumor xenografts, approximately five million MDA-MB-231 cells in suspension of 100 μL sterile PBS were injected subcutaneously into the left thigh of each mouse. Tumors were allowed to grow for 4-6 weeks by which tumors had reached weights of 200-300 mg. After sufficient growth of tumors, animals were injected with 20-30 μCi of the radiotracers and the animals were sacrificed at specified time points. The uptake of ^68Ga-radiolabeled peptides in the tumors and other major body organs was calculated by γ-counting as described above.

[2] = target: T1, BN/GRP receptor-positive MDA-MB-231 human breast cancer cells (Homo sapiens, UniProt P30550); test: Saturation binding assay on MDA-MB-231 cells; details: n = 3-5 experiments, SD < 15%
T1 construct: BN/GRP receptor-positive MDA-MB-231, MCF7, T47D human breast cancer, and PC3 human prostate cancer lines; host or cells: MDA-MB-231, MCF7, T47D (human breast cancer), PC3 (human prostate cancer); intact cells
Description: (§1) The cell binding of ^68Ga-radiolabeled peptides into BN/GRP receptor-positive MDA-MB-231, MCF7, T47D human breast cancer, and PC3 human prostate cancer lines (American Type Culture Collection, Rockville, MD, USA) was performed according to the method described previously. In brief, ∼ 300,000 cells (in 300 μL in low-serum media) were incubated with various amounts of radiopeptides, ranging between 0.1 and 25 nM of peptide (prepared from the serial dilutions of HPLC-purified radiopeptides), in duplicate for 60 min at room temperature. The initial concentrations of ^68Ga-labeled peptides were determined according to a well-established HPLC technique with simultaneous detection by UV absorbance. As the amount of BN peptide in the reaction mixture was too small to be detected by UV absorption at 220 nm, the radioactive peptide chromatograms from the HPLC analysis were compared (with UV chromatograms) with those of known concentrations of the corresponding nonradioactive peptides for the mass determination. Incubation was terminated by dilution with cold saline (300 μL) and the cells were pelleted by centrifugation. The cell pellets was then rapidly washed with cold saline to remove any unbound peptide and centrifuged to collect supernatants. Radioactivity in the cell pellet and the washings was measured in a γ-counter. Non-specific binding was determined in the presence of ~ 200-fold molar excess of unlabeled BN peptide. Specific binding is calculated by subtracting the non-specifically bound radioactivity from that of the total binding. The dissociation constant (Kd) was calculated using a plot of cell bound activity versus the concentration of the radioligand using GraphPad Prism software (GraphPad Software Inc., San Diego, CA, USA).

[3] = target: T2, BN/GRP receptor-positive PC3 human prostate cancer cells (Homo sapiens, UniProt P30550); test: Saturation binding assay on PC3 cells; details: n = 3-5 experiments, SD < 15%
T2 construct: BN/GRP receptor-positive MDA-MB-231, MCF7, T47D human breast cancer, and PC3 human prostate cancer lines; host or cells: MDA-MB-231, MCF7, T47D (human breast cancer), PC3 (human prostate cancer); intact cells
Description: as §1

in vivo [4] = test: in vivo; parameters: species or system Balb/c mice; details: Balb/c, mouse, iv
Description: Approval for the animal protocol used in this study was obtained from the Institutional Animal Care and Use Committee. Animal studies were conducted according to the international regulations governing the safe and proper use of laboratory animals. In vivo biodistribution were performed on healthy Balb/c mice (n = 3–5 in each group, body weight 19–22 g) at 1 and 2 h after intravenous injection of the HPLC-purified radiopeptide (100 μL, 15–20 μCi, total peptide dose ~ 20 ng) via the lateral tail vein. The mice were sacrificed by cervical dislocation at specified time points and blood samples were withdrawn with a syringe from the heart. Major organs such as lungs, stomach, spleen, pancreas, intestines, liver, kidneys, etc. were isolated, weighed, and radioactivity in each organs and tissues were measured using a γ-scintillation counter. Uptake of radioactivity in the tissues and organs was expressed as the percent injected dose per gram (% ID/g) of tissue/organ, which was calculated by comparison with standard solutions representing 10% of the injected dose per animal. For the clearance studies, radioactivity in the urine with bladder and feces is expressed as the percent of the injected dose per tissue (% ID). Values are expressed as mean ± SD for a group of 3-5 animals at each time point.

[5] = Radioactivity in Urine + bladder
[6] = Uptake in Intestines (measured without their contents)
[7] = total radioactivity, %ID excreted in Feces
[8] = total radioactivity, Uptake in Bone
[9] = total radioactivity, Uptake in Intestines (measured without their contents)
[10] = total radioactivity, Uptake in Kidneys
[11] = total radioactivity, Uptake in Pancreas
[12] = total radioactivity, Uptake in Spleen
[13] = total radioactivity, Uptake in Stomach

With `CCCC[C@H](NC(=O)[C@H](Cc1c[nH]cn1)NC(=O)[C@H](CC1CCCCC1)NC(=O)[C@@H](NC(=O)[C@H](C)NC(=O)[C@H](Cc1c[nH]c2ccccc12)NC(=O)[C@H](CCC(N)=O)NC(=O)[C@H](CS)NC(=O)CNC(=O)CNC(=O)c1ccc(NC(=O)CN2CCN(CC(=O)O)CCN(CC(=O)O)CCN(CC(=O)O)CC2)cc1)C(C)C)C(=O)N[C@@H](CCSC)C(N)=O` [^68Ga-DOTA-Abz-BN Cyclen, metal not drawn] ({DOTA-4Abz}-GGCQWAV[Cha]H[Nle]M-NH2) the dose excreted at 1 h (in vivo [1]; [5]) was 61 ± 9.93%, the dose excreted at 2 h (in vivo [1]; [5]) was 78 ± 5.89% and the tissue uptake at 1 h (in vivo [1]; Uptake in Blood) was 1 ± 0.16 %ID/g. It also gave a tissue uptake at 2 h (in vivo [1]; Uptake in Blood) of 0.55 ± 0.1 %ID/g, a tissue uptake at 1 h (in vivo [1]; [6]) of 0.95 ± 0.27 %ID/g and a tissue uptake at 2 h (in vivo [1]; [6]) of 0.54 ± 0.16 %ID/g. The tissue uptake at 1 h (in vivo [1]; Uptake in Kidneys) was 6.03 ± 1 %ID/g, the tissue uptake at 2 h (in vivo [1]; Uptake in Kidneys) was 5 ± 0.77 %ID/g and the tissue uptake at 1 h (in vivo [1]; Uptake in Liver) was 2.54 ± 0.46 %ID/g. For the same compound, the tissue uptake at 2 h (in vivo [1]; Uptake in Liver) was 2 ± 0.37 %ID/g, the tissue uptake at 1 h (in vivo [1]; Uptake in Lungs) was 2.8 ± 0.55 %ID/g and the tissue uptake at 2 h (in vivo [1]; Uptake in Lungs) was 1.15 ± 0.23 %ID/g. The tissue uptake at 1 h (in vivo [1]; Uptake in Muscle) was 0.32 ± 0.06 %ID/g, the tissue uptake at 2 h (in vivo [1]; Uptake in Muscle) was 0.26 ± 0.05 %ID/g and the tissue uptake at 1 h (in vivo [1]; Uptake in Pancreas) was 2.94 ± 0.43 %ID/g. The tissue uptake at 2 h (in vivo [1]; Uptake in Pancreas) was 1.18 ± 0.31 %ID/g, the tissue uptake at 1 h (in vivo [1]; Uptake in Spleen) was 0.22 ± 0.07 %ID/g and the tissue uptake at 2 h (in vivo [1]; Uptake in Spleen) was 0.12 ± 0.02 %ID/g. The tissue uptake at 1 h (in vivo [1]; Uptake in Stomach) was 1.34 ± 0.29 %ID/g, the tissue uptake at 2 h (in vivo [1]; Uptake in Stomach) was 0.49 ± 0.12 %ID/g and the “Bmax (apparent number of binding sites per cell)” value [2] was 6.09 × 10^5 sites/cell. The “Bmax (apparent number of binding sites per cell)” value [3] was 4.30 × 10^5 sites/cell, the “%ID excreted in Urine” value (in vivo [4]; 1 h) was 70.0 ± 8.60 %ID and the “Uptake in Liver” value (in vivo [4]; 1 h) was 0.68 ± 0.16 %ID/g. For the same compound, the “Uptake in Lungs” value (in vivo [4]; 1 h) was 0.21 ± 0.05 %ID/g, the dose excreted at 1 h (in vivo [4]; [7]) was 1.01 ± 0.2% and the dose excreted at 2 h (in vivo [4]; [7]) was 0.88 ± 0.12%. It also gave a dose excreted at 2 h (in vivo [4]; total radioactivity, %ID excreted in Urine) of 62 ± 9.54%, a tissue uptake at 1 h (in vivo [4]; total radioactivity, Uptake in Blood) of 0.4 ± 0.11 %ID/g and a tissue uptake at 1 h (in vivo [4]; [8]) of 0.13 ± 0.04 %ID/g. For the same compound, the tissue uptake at 2 h (in vivo [4]; [8]) was 0.09 ± 0.01 %ID/g, the tissue uptake at 1 h (in vivo [4]; [9]) was 0.85 ± 0.17 %ID/g and the tissue uptake at 2 h (in vivo [4]; [9]) was 0.53 ± 0.14 %ID/g. For the same compound, the tissue uptake at 1 h (in vivo [4]; [10]) was 2.96 ± 0.3 %ID/g, the tissue uptake at 2 h (in vivo [4]; [10]) was 1.88 ± 0.25 %ID/g and the tissue uptake at 2 h (in vivo [4]; total radioactivity, Uptake in Liver) was 0.5 ± 0.07 %ID/g. The tissue uptake at 1 h (in vivo [4]; [11]) was 1.07 ± 0.13 %ID/g, the tissue uptake at 2 h (in vivo [4]; [11]) was 0.88 ± 0.11 %ID/g and the tissue uptake at 1 h (in vivo [4]; [12]) was 0.12 ± 0.02 %ID/g. It also gave a tissue uptake at 2 h (in vivo [4]; [12]) of 0.07 ± 0.01 %ID/g, a tissue uptake at 1 h (in vivo [4]; [13]) of 1.69 ± 0.24 %ID/g and a tissue uptake at 2 h (in vivo [4]; [13]) of 0.45 ± 0.1 %ID/g.
